Experimental data from patent US10266565B2, “Peptide mimetic ligands of polo-like kinase 1 polo box domain and methods of use” (The United States of America, as represented by the …, priority 2011, dated 2019).
“Also recorded” adds a separate entry of the source. One block for each molecule: values may come before it. Where a SMILES comes first, the peptide text is derived from it. Where no end group is shown, it is not given here. [ ]: non-standard residue; d: D form. The star is where a group is joined. His(π-(CH2)8Ph) = N[C@@H](Cc1cncn1CCCCCCCCc1ccccc1)C(=O)O; Abu(3R-Me,4-PO3H2) = C[C@@H](CP(=O)(O)O)[C@H](N)C(=O)O; CH3O(CH2CH2O)7C2H4CO = COCCOCCOCCOCCOCCOCCOCCOCCC(=O)*; pT = C[C@@H](OP(=O)(O)O)[C@H](N)C(=O)O; PEG = not defined here

Key:
Plk2 = molecular target: T1, Plk2 (Mus musculus, UniProt P53351, K108M); experiment: Peptide pull-down assay with bead-immobilized peptides, Plk2; format: binding
T1 construct: expressed in transfected cells
T1 sequence (P53351 whole entry K108M): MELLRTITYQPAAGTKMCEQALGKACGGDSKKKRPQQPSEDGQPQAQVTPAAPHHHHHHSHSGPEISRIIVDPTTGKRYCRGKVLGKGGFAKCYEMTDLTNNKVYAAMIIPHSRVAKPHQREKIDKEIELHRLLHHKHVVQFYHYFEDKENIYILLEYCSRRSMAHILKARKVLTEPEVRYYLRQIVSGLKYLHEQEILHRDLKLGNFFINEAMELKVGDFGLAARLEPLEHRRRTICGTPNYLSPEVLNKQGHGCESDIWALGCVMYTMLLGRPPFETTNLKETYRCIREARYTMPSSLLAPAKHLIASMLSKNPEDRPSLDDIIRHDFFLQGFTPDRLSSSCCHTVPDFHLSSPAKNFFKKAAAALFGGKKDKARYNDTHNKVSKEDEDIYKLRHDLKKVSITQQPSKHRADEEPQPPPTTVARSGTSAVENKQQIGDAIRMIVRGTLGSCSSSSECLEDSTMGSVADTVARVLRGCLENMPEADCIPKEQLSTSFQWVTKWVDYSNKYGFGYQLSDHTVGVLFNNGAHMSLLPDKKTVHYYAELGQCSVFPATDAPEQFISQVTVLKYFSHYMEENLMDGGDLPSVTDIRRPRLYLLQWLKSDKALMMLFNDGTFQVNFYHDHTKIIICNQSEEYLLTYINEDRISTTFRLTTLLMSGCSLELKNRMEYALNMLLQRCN
Experimental: After incubating the cell lysates prepared in TBSN buffer {20 mM Tris-Cl (pH8.0), 150 mM NaCl, 0.5% Np-40, 5 mM EGTA, 1.5 mM EDTA, 20 mM p-nitrophenylphosphate and protease inhibitor cocktail (Roche, Nutley, N.J.)} with the bead-immobilized ligands for 2 h at 4° C., the ligand-associating proteins were precipitated, washed, boiled in sodium dodecyl sulfate (SDS) sample buffer, separated by 8% SDS-polyacrylamide gel electrophoresis (PAGE), and then subjected to immunoblotting analysis with anti-Flag antibody and the enhanced chemilunimescence (ECL) detection system (Pierce). The same membrane was also stained with Coomassies (CBB). Signal intensities were quantified using Image J program.
To investigate the binding specificity of p-T78 peptides to various Plks, Flag-Plk1 (K82M), Flag-Plk2(K108M)3 or Flag-Plk3(K52R) (a gift of Wei Dai, New York University School of Medicine, NY) construct was first transfected into HeLa cells. Cellular lysates were prepared as above, mixed, and then incubated in TBSN buffer with the immobilized peptides indicated.

HeLa cells [1] = experiment: Direct treatment of cultured HeLa cells (mitotic arrest, apoptotic cell death, Plk1 localization); format: cell-based; conditions: 200 μM
Plk1 = molecular target: T2, Plk1 (Homo sapiens, UniProt P53350); experiment: Peptide pull-down assay with bead-immobilized peptides, Plk1; format: binding; conditions: for Plk1 binding / precipitation in pull-down, in words: mitotic cell lysates
T2 construct: we used total lysates prepared from mitotic HeLa cells; endogenous in cells; host or cells: mitotic (nocodazole-arrested) HeLa cells
T2 sequence (P53350 2-603): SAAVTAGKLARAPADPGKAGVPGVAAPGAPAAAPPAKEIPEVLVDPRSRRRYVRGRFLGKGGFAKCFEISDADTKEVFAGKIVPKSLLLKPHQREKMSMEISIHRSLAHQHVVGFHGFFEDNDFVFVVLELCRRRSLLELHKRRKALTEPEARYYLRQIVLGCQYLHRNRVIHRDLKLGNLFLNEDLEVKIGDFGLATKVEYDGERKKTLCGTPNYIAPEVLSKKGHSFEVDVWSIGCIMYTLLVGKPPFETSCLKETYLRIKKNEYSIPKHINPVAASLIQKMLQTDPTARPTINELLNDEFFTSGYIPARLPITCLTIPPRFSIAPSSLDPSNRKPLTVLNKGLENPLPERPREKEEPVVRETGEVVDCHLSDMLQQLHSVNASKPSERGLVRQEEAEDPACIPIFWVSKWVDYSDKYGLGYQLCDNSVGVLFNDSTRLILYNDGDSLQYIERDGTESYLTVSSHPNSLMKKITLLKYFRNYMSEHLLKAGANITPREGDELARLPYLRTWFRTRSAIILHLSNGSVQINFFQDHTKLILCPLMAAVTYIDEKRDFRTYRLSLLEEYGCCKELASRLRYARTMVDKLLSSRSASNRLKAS
Experimental: For Plk1 pull-down assays with immobilized peptides, we used total lysates prepared from mitotic HeLa cells. […] Cells treated with 200 ng/ml of nocodazole for 16 h were lysed in TBSN buffer {20 mM Tris-Cl (pH8.0), 150 mM NaCl, 0.5% NP-40, 5 mM EGTA, 1.5 mM EDTA, 0.5 mM Na3VO4, 20 mM p-nitrophenyl phosphate, and protease inhibitor cocktail (Roche, Nutley, N.J.)}, and then clarified by centrifugation at 15,000×g for 20 min at 4° C. The resulting lysates were incubated with bead-immobilized peptides (40 μM per binding) for 2 h, precipitated, washed, and then boiled in sodium dodecyl sulfate (SDS) sample buffer to elute the associated proteins. Samples were separated by 10% SDS-polyacrylamide gel electrophoresis (PAGE), and then either stained with silver or transferred to PVDF membrane for immunoblotting analysis with anti-Plk1 antibody using the enhanced chemiluminescence (ECL) detection system (Pierce). […]

Plk1 PBD = Plk1 PBD (Homo sapiens, UniProt P53350); experiment: Isothermal titration calorimetry with recombinant Plk1 PBD; format: binding
Plk1 PBD, sequence (P53350 326-603): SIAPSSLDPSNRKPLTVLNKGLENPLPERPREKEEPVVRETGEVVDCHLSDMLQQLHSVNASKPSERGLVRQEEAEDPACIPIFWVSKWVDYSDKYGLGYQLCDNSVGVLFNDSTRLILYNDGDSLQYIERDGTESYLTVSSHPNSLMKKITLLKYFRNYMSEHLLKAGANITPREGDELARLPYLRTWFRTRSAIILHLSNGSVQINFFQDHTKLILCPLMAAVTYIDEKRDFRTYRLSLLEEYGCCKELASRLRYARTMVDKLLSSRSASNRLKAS

[2] = molecular target: Plk1 PBD-p-Cdc25C interaction (Homo sapiens, UniProt P53350); experiment: Competition of the PBD-p-Cdc25C interaction in mitotic HeLa lysates; format: binding; conditions: GST-PBD
Plk1 PBD-p-Cdc25C interaction, sequence (P53350 326-603 limits assumed): as the sequence (P53350 326-603) above
Experimental: For p-Cdc25C pull-down assays, either bead-bound GST-PBD or the corresponding GST-PBD(H538A K540M) mutant was incubated with mitotic HeLa lysates in TBSN buffer supplemented with 2 mM DTT. To test the ability of the indicated peptides to compete the PBD-p-Cdc25C interaction, lysates were pre-incubated with GST-PBD for 1.5 h prior to the addition of the indicated peptides. Lysates were then incubated for additional 1.5 h, washed in the binding buffer, and then analyzed. For competition of the interaction between p-Cdc25C and endogenous Plk1, mitotic lysates were prepared in TBSN and incubated with the indicated peptides for 1 h before subjecting to immunoprecipitation with anti-Plk1 antibody.

[3] = molecular target: recombinant Plk1 PBD (full length PBD, calorimetry) (UniProt P53350); experiment: ITC, 25 C; 5-mer LHSpTA (SEQ ID NO: 3)
recombinant Plk1 PBD (full length PBD, calorimetry), sequence (P53350 326-603 limits assumed): as the sequence (P53350 326-603) above

Plk2 PBD = molecular target: T3, Plk2 PBD (Homo sapiens, UniProt Q9NYY3); experiment: Isothermal titration calorimetry with recombinant Plk2 PBD; conditions: titrated into Plk2 PBD
T3 sequence (Q9NYY3 373-685): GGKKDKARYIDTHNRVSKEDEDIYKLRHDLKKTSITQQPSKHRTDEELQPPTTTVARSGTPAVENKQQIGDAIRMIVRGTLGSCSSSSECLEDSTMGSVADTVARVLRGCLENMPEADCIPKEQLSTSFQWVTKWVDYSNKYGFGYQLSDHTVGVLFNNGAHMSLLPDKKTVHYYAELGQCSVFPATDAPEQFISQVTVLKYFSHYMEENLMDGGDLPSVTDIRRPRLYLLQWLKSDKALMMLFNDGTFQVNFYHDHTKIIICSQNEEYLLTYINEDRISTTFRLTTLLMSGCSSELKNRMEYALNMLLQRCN

HeLa cells [4] = experiment: Microinjection of peptides into HeLa cells; format: cell-based; conditions: for Plk1 localization at centrosomes and kinetochores: microinjection; for mitotic arrest / cell cycle effect, in words: peptide introduced into the cells
Experimental: HeLa cells were cultured as subconfluent monolayers under the conditions recommended by American Type Culture Collection (Manassas, Va.). […] No mitotic exit was observed during the period of 10 min BMI-1026 treatment. For microinjection experiments with the Pmab-containing mimetic peptides, cells were arrested for 16 h with 2.5 mM thymidine (Sigma) and released into fresh medium. Two hours after release from the S phase block, the indicated peptides (2.5 mM stock in PBS) were microinjected into the cells using Eppendorf® Transjector 5246 (Eppendorf®, Westbury, N.Y.) at the 150 hPa pressure level and the 0.5 second injection time. All the cells in a single grid were injected and then further incubated to monitor cell cycle progression. For microinjection experiments with the F2Pmab-containing mimetic peptides, cells were arrested with 2.5 mM thymidine for 16 h twice with a 9 h release interval, and then released into fresh medium. Seven hours after release from the G1/S phase block, the indicated peptides (4 mM stock in PBS) were microinjected similarly as above. Where indicated, peptides containing the final concentration of 30 ng/μl of pEGFP-C1 vector (Clontech®, Mountain View, Calif.) were used to visualize the injected cells.
Four hours after microinjection, cells were fixed and subjected to immunostaining analyses as described below.
Similar methods were used for the experiments shown in FIG. 16 using the peptides indicated. HeLa cells were arrested at the G1/S boundary by double thymidine treatment and released into fresh medium. […] Co-injected EGFP plasmid provided a convenient marker to identify the microinjected cells.
Indirect immunostaining was carried out as described previously (5) using anti-Plk1 antibody (Santa Cruz Biotechnologies, Santa Cruz, Calif.) and anti-CREST antiserum (Cortex Biochem, San Leandro, Calif.). All the appropriate secondary antibodies were purchased from Jackson ImmunoResearch Laboratories, Inc. (West Grove, Pa.). Biotinylated F2Pmab-positive cells were detected by co-staining with FITC-conjugated Streptavidin (Invitrogen®, Carlsbad, Calif.). Chromosomes were visualized with 4′,6-diamidino-2-phenylindole (DAPI) (Sigma). Digital images were collected with a Zeiss LSM510 confocal microscope. For the quantification of the fluorescence signal intensities, images of unsaturated fluorescence signals were acquired with the same laser intensity at 512×512 pixels and 12-bit resolution. Fluorescence intensities for localized signals were determined after subtracting the background signal intensities using Zeiss AIM confocal software.

[5] = molecular target: Plk1 PBD (construct and assay format not stated at these places) (UniProt P53350); experiment: assay not given
Plk1 PBD (construct and assay format not stated at these places), sequence (P53350 326-603 limits assumed): as the sequence (P53350 326-603) above

[6] = molecular target: Plk1 (endogenous, HeLa cells) (UniProt P53350); experiment: pull-down with bead-immobilized peptide, mitotic HeLa lysate
Plk1 (endogenous, HeLa cells), sequence (P53350 2-603 limits assumed): as the sequence (P53350 2-603) above

Flag-Plk3 (K52R) = molecular target: T4, Flag-Plk3 (K52R) (UniProt Q9H4B4 40-646, K52R); experiment: pull-down with bead-immobilized peptide, mixed Flag-Plk1/2/3 lysates (293T)
T4 construct: In lysates of transfected cells
T4 sequence (Q9H4B4 40-646 K91R): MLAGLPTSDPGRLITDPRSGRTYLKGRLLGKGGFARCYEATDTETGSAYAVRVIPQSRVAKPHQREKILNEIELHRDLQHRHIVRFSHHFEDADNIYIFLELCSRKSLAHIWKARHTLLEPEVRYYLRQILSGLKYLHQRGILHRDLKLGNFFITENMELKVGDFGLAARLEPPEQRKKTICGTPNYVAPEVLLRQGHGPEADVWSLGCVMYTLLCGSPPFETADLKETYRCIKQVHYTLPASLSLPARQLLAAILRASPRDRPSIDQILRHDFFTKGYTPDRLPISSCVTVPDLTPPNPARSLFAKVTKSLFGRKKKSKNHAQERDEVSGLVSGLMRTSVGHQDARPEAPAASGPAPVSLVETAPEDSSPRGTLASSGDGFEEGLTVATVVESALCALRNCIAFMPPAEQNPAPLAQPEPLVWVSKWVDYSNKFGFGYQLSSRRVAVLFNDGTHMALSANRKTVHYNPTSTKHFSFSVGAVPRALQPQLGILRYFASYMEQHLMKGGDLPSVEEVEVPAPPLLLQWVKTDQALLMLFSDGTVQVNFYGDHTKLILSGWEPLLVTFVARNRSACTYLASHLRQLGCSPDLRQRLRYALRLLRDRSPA

Molecule: CSCC[C@H](N)C(=O)N[C@@H](CCC(N)=O)C(=O)N[C@@H](CO)C(=O)N[C@H](C(=O)N1CCC[C@H]1C(=O)N[C@@H](CC(C)C)C(N)=O)[C@@H](C)OP(=O)(O)O [MQSpTPL, reference compound]
Plk2 precipitation as efficiency of Plk1 precipitation (Plk2; lysates with similar levels of Plk1, Plk2, Plk3): ~27%

Molecule: COCCOCCOCCOCCOCCOCCOCCOCCC(=O)N1CCC[C@H]1C(=O)N[C@@H](CC(C)C)C(=O)N[C@@H](Cc1cnc[nH]1)C(=O)N[C@@H](C)C(=O)N[C@H](C(N)=O)[C@@H](C)CP(=O)(O)O [PEG-1* (S/A)] ({CH3O(CH2CH2O)7C2H4CO}-PLHA[Abu(3R-Me,4-PO3H2)]-NH2)
Plk1 delocalization and misaligned chromosomes (HeLa cells [1]): not
mitotic arrest / apoptotic cell death / cellular response (HeLa cells [1]): not

Molecule: COCCOCCOCCOCCOCCOCCOCCOCCC(=O)N1CCC[C@H]1C(=O)N[C@@H](CC(C)C)C(=O)N[C@@H](Cc1cnc[nH]1)C(=O)N[C@@H](CO)C(=O)N[C@H](C(N)=O)[C@@H](C)CP(=O)(O)O [PEG-1*]
Plk1 delocalization and misaligned chromosomes (HeLa cells [1]): only mild Plk1 delocalization with a moderate level of misaligned chromosomes
mitotic arrest / apoptotic cell death / cellular response (HeLa cells [1]): weak but significant level of mitotic arrest

Molecule: COCCOCCOCCOCCOCCOCCOCCOCCC(=O)N1CCC[C@H]1C(=O)N[C@@H](CC(C)C)C(=O)N[C@@H](Cc1cncn1CCCCCCCCc1ccccc1)C(=O)N[C@@H](C)C(=O)N[C@H](C(N)=O)[C@@H](C)CP(=O)(O)O [PEG-4j* (S/A)] ({CH3O(CH2CH2O)7C2H4CO}-PL[His(π-(CH2)8Ph)]A[Abu(3R-Me,4-PO3H2)]-NH2)
Plk1 delocalization and misaligned chromosomes (HeLa cells [1]): not
mitotic arrest / apoptotic cell death / cellular response (HeLa cells [1]): did not

Molecule: HSpT: "HSpT lacking both the Pro and Leu residues" (His-Ser-[pT])
Plk1 binding / precipitation in pull-down, in words (Plk1): did not exhibit any significant level of binding

Molecule: HSpTA: 4-mer p-T78 peptide "HSpTA (SEQ ID NO: 15)" (HS[pT]A)
Plk1 binding / precipitation in pull-down, in words (Plk1): bound to Plk1 better than SpTAI
binding affinity by calorimetry, in words (Plk1 PBD): much lower affinities
disruption of the pre-formed PBD-p-Cdc25C complex [2]: disrupted the complex weakly

Molecule: HSpTAI: "HSpTAI, lacking both Pro and Leu but instead bearing two additional C-terminal residues following the SpT motif" (HS[pT]AI)
Plk1 binding / precipitation in pull-down, in words (Plk1): bound to Plk1 only weakly

Molecule: LHSpTA (peptide)
Kd [3]: 450 nM

Molecule: MLHSpT: "a Pro-4 to Met-4 mutant, MLHSpT (SEQ ID NO: 18)" (MLHS[pT])
Plk1 binding / precipitation in pull-down, in words (Plk1): greatly diminished level of Plk1 PBD binding

Molecule: PLQSpT: "mutation of the His-2 to Gln"; "the PLQSpT mutant" of parent PLHSpT (PLQS[pT])
increase of the level of Plk2 binding (Plk2; His-2 to Gln mutant versus PLHSpT): 24 fold
initial heats of interaction (Plk2 PBD): ~-1.1 kcal/mol

Molecule: Pmab(S77A): the S77A mutants of the Pmab- and the F2Pmab-containing peptides (24 and 26, respectively) (PLHA[Abu(3R-Me,4-PO3H2)])
Plk1 localization at centrosomes and kinetochores (HeLa cells [4]): not
mitotic arrest / cell cycle effect, in words (HeLa cells [4]): not

Molecule: non-phospho T78 peptide: "the respective non-phospho PLHST (SEQ ID NO: 11) control peptide"
Plk1 localization at centrosomes and kinetochores (HeLa cells [4]): not
mitotic arrest / cell cycle effect, in words (HeLa cells [4]): proceeded through the cell cycle normally

Molecule: Ac-PPHS[pT] [PPHSpT]
fold diminished binding affinity [5]: 20 fold

Further lines, with some results ahead:

diminished binding affinity to Plk1 relative to PLHSpT (Plk1): ~7 fold
Plk1 binding / precipitation in pull-down, in words (Plk1): bound to Plk1 better than SpTAI
binding affinity by calorimetry, in words (Plk1 PBD): much lower affinities
weaker binding than PLHSpT (Plk1 PBD; assay not given): ~50 fold
Molecule: LHSpT: "LHSpT (SEQ ID NO: 14) lacking the N-terminal Pro" (LHS[pT])
disruption of the pre-formed PBD-p-Cdc25C complex [2]: much less effective than PLHSpT; also recorded: disrupted the complex weakly

Plk1 binding / precipitation in pull-down, in words (Plk1): equivalent to that of the former
Molecule: LHSpTAI: "the analogous p-T78 peptide (LHSpTAI (SEQ ID NO: 17))" (LHS[pT]AI)
binding affinity by calorimetry, in words (Plk1 PBD): slightly higher affinities than the 5-mer peptides

Plk1 binding / precipitation in pull-down, in words (Plk1): abolished the Plk1 binding
Molecule: PLHA-Pmab: "a mutation of the invariably required Ser-1 residue to Ala {PLHA-Pmab (SEQ ID NO: 20); in short, Pmab(S77A)}" (PLHA[Abu(3R-Me,4-PO3H2)])

fold weaker binding than PLHSpT [5]: 50 fold
fold diminished binding relative to PLHSpT [6]: 7 fold
Molecule: LHS[pT] [LHSpT]

binding result (Flag-Plk3 (K52R)): no binding
Molecule: Ac-PLH(Ph‑(CH2)8)S[pT] (also called peptide 4j; Compound 4j) [4j (Biological Example 1)]

binding result (Flag-Plk3 (K52R)): no binding
B1: PEG-4j* (peptide)
peptide: {PEG}-PLH(Ph‑(CH2)8)S[Abu(3R-Me,4-PO3H2)]
modifications: reading uncertain
notes: T0009: Z = CH2, G = Ph-(CH2)8-, R1 = PEG; also called Cys-PEG-4j* (bead-immobilized form)
